The source of these data is patent publication US20150246947A1 (BAXALTA, published 2015).

The chains are these.
B1: JBS2611 (peptide)
chain: Ac-TFHVSAGWYDYNFDHYREFT-NH2
B2: JBS2810 (peptide)
chain: Ac-TGLVSAGWYDYNFDHYMEFT-NH2
B3: JBS2823 (peptide)
chain: Ac-TGLVSAGWYNYNFDHYREFT-NH2
B4: JBS2678 (peptide)
chain: Ac-TGHVSAGWYDYNFDHYRE-NH2
B5: JBS2650 (peptide)
chain: Ac-TGSVSAGWYDYNFDHYREFT-NH2
B6: JBS2847 (peptide)
chain: Ac-TGLVSAGWYDYNFDQYREFT-NH2
B7: JBS2680 (peptide)
chain: Ac-TAHVSAGWYDYNFDLYREFT-NH2
B8: JBS2663 (peptide)
chain: Ac-TGHVSAGWYDYNFDHYSEFT-NH2
B9: JBS2885 (peptide)
chain: Ac-TGLVSAGWYDYNFDTYREFT-NH2
B10: JBS2794 (peptide)
chain: Ac-MGLVSAGWYDYNFDHYREFT-NH2
B11: JBS2679 (peptide)
chain: Ac-TAHVSAGWYDYNFDDYREFT-NH2
B12: JBS2610 (peptide)
chain: Ac-FGHVSAGWYDYNFDHYREFT-NH2
B13: JBS2682 (peptide)
chain: Ac-GGHVSAGWYDYNFDLYREFT-NH2
B14: JBS2683 (peptide)
chain: Ac-GAHVSAGWYDYNFDLYREFT-NH2
B15: JBS2681 (peptide)
chain: Ac-GAHVSAGWYDYNFDHYREFT-NH2
B16: JBS2770 (peptide)
chain: Ac-TGLVSAGWYDYNFDHYHEFT-NH2
B17: JBS3222 (peptide)
chain: Ac-EGYVSAGWYDYNTDTYYEFE-NH2
B18: JBS2628 (peptide)
chain: Ac-PGHVSAGWYDYNFDHYREFT-NH2
B19: JBS2659 (peptide)
chain: Ac-TGHVSAGWYDYNSDHYREFT-NH2
B20: JBS2903 (peptide)
chain: Ac-TGLVSAGWYDYNFDVYREFT-NH2
B21: JBS2713 (peptide)
chain: TGLVSAGWYDYNFDHYREFTC
B22: JBS2684 (peptide)
chain: Ac-GGHVSAGWYDYNADHYREFT-NH2
B23: JBS2752 (peptide)
chain: Ac-TGLVSAGWYDYNFDHYEEFT-NH2
B24: JBS2806 (peptide)
chain: Ac-TGLVSAGWYDYNMDHYREFT-NH2
B25: JBS2740 (peptide)
chain: Ac-TGLVEAGWYDYNFDHYREFT-NH2
B26: JBS2825 (peptide)
chain: Ac-TGLVSAGWYDYNNDHYREFT-NH2
B27: JBS3246 (peptide)
chain: Ac-EYYVSAGWYDYEHDTYLEFY-NH2
B28: JBS3217 (peptide)
chain: Ac-EYYVSAGWYDYNDDKYYEFE-NH2
B29: JBS3237 (peptide)
chain: Ac-EYYVSAGWYDYNTDKYYEFI-NH2
B30: JBS3180 (peptide)
chain: Ac-GLVSAGWYDYNFDHYREFT-NH2
B31: JBS3162 (peptide)
chain: Ac-TCLVSAGWYDCYNFDHYREFT-NH2
modifications: disulfide 2-11
SMILES: CC(=O)N[C@H](C(=O)N[C@H]1CSSC[C@@H](C(=O)N[C@@H](Cc2ccc(O)cc2)C(=O)N[C@@H](CC(N)=O)C(=O)N[C@@H](Cc2ccccc2)C(=O)N[C@@H](CC(=O)O)C(=O)N[C@@H](Cc2c[nH]cn2)C(=O)N[C@@H](Cc2ccc(O)cc2)C(=O)N[C@@H](CCCNC(=N)N)C(=O)N[C@@H](CCC(=O)O)C(=O)N[C@@H](Cc2ccccc2)C(=O)N[C@H](C(N)=O)[C@@H](C)O)NC(=O)[C@H](CC(=O)O)NC(=O)[C@H](Cc2ccc(O)cc2)NC(=O)[C@H](Cc2c[nH]c3ccccc23)NC(=O)CNC(=O)[C@H](C)NC(=O)[C@H](CO)NC(=O)[C@H](C(C)C)NC(=O)[C@H](CC(C)C)NC1=O)[C@@H](C)O
B32: JBS3241 (peptide)
chain: Ac-EYYVSAGWYDYNNDIYLEFE-NH2
B33: JBS3245 (peptide)
chain: Ac-EYYVSAGWYDYNSDTYFEFI-NH2
B34: JBS2941 (peptide)
chain: Ac-TGLVSAGWYDYNFDHYYEFT-NH2
B35: JBS3157 (peptide)
chain: CGLVSAGWYDCYNFDHYREFT
B36: JBS3234 (peptide)
chain: Ac-EYYVSAGWYDYNADTYYEFE-NH2
B37: JBS3247 (peptide)
chain: Ac-EYYVSAGWYNYEEDSYYEFE-NH2
B38: JBS3170 (peptide)
chain: CGLVSAGWYDYNCDHYREFT
B39: JBS3172 (peptide)
chain: CGLVSAGWYDYNFDCYREFT
B40: JBS3239 (peptide)
chain: Ac-EYYVSAGWYDTNNDRYYEFI-NH2
B41: JBS3240 (peptide)
chain: Ac-EYYVSAGWYDYNNDIYYEFI-NH2
B42: JBS3242 (peptide)
chain: Ac-EYYVSAGWHDYNKDIYFEFF-NH2
B43: JBS3251 (peptide)
chain: Ac-QYYVVAGWYDYNTDSYYEFD-NH2
B44: JBS3160 (peptide)
chain: Ac-CGLVSAGWYDYNFCDHYREFT-NH2
modifications: disulfide 1-14
SMILES: CC(=O)N[C@H]1CSSC[C@@H](C(=O)N[C@@H](CC(=O)O)C(=O)N[C@@H](Cc2c[nH]cn2)C(=O)N[C@@H](Cc2ccc(O)cc2)C(=O)N[C@@H](CCCNC(=N)N)C(=O)N[C@@H](CCC(=O)O)C(=O)N[C@@H](Cc2ccccc2)C(=O)N[C@H](C(N)=O)[C@@H](C)O)NC(=O)[C@H](Cc2ccccc2)NC(=O)[C@H](CC(N)=O)NC(=O)[C@H](Cc2ccc(O)cc2)NC(=O)[C@H](CC(=O)O)NC(=O)[C@H](Cc2ccc(O)cc2)NC(=O)[C@H](Cc2c[nH]c3ccccc23)NC(=O)CNC(=O)[C@H](C)NC(=O)[C@H](CO)NC(=O)[C@H](C(C)C)NC(=O)[C@H](CC(C)C)NC(=O)CNC1=O

Several values for one entry are separate records, joined by “and”; a condition that tells them apart may be missing. Identical values can stand only once. Positions of bridges follow the written chain, without caps; N, C: chain ends.

One assay deals with T1, human Protein S (UniProt P07225 42-676).
T1 chain: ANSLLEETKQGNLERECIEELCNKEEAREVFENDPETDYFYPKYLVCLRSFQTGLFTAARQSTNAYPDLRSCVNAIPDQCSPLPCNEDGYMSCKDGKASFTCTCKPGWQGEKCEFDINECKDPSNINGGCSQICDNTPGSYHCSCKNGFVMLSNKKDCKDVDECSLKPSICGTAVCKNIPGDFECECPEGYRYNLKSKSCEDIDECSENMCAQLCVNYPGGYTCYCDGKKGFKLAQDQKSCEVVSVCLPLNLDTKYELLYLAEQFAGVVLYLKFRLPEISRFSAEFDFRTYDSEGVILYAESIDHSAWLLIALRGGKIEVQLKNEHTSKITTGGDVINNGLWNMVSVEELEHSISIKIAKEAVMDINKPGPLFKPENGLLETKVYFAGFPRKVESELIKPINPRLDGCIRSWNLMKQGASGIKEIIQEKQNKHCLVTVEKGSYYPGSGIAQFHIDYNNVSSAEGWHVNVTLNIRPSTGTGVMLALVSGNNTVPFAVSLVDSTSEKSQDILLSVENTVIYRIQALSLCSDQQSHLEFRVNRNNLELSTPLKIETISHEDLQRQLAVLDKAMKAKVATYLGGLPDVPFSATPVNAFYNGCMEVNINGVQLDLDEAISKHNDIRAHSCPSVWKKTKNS
The experiment in a line: LANCE competition. The method in brief:
(§1)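 A homogeneous time-resolved FRET (LANCE) competition format paired europium-labelled Protein S and ULight-labelled streptavidin with a biotinylated tracer peptide, against which unlabelled test peptide was titrated three-fold. With final concentrations of 10 nM Protein S, 100 nM streptavidin and 300 nM tracer in 50 µl, or 2 nM Protein S and 60 nM tracer when a Tecan F500 was used, samples stood 1 hour at room temperature. Emission was read at 665 nm with excitation at 340 nm. Non-linear regression of these signals gave the IC50.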
For orientation: Time-resolved FRET reads energy transfer from a long-lived donor to a nearby acceptor.
As usually defined, the IC50 is the concentration needed to halve the response being measured. Low readings indicate higher potency, high ones lower potency. In the case of B1, the IC50 was found to be 12.5 nM. In other words, the double-digit nanomolar range.

B2: the IC50 was 4.4 nM and 5.5 nM. For the molecule B3, the IC50 was determined as 13.5 nM. In other words, the double-digit nanomolar range. The molecule B4 had an IC50 of 1810 nM. Same read-out and setting: the same measure for B5: 25.1 nM. Still for that read-out and setting: under B6 stands 5.4 nM; under B7, 6 nM. Molecule B8 displayed a half-maximal inhibitory concentration (IC50) of 28.4 nM.

As to B9, the IC50 was found to be 4.4 nM. For B10, the concentration for half-maximal inhibition (IC50) was 4 nM and 5.6 nM. The same measure, in the same setting: the same measure for B11: 30 nM; for B12: 15.5 nM.

B13 came in with a half-inhibitory concentration (IC50) of 7.5 nM. Regarding B14, the IC50 is 5.6 nM. On the same count and under the same terms, under B15 stands 18.7 nM; under B16, 5.2 nM. On the same count and under the same terms, under B17 stands 1.5 nM; under B18, 27 nM; under B19, 16.4 nM. B20 gave a 50% inhibitory concentration (IC50) of 3.1 nM. Against the preceding molecule, the IC50 is about 5.3-fold lower. For the molecule B21, the 50% inhibitory concentration (IC50) turned out to be 20.1 nM. In turn, B22 had a 50% inhibitory concentration (IC50) of 12.5 nM. Molecule B23 showed an IC50 of 6.8 nM. In the case of B24, the 50% inhibitory concentration (IC50) is 5.7 nM. Same read-out and setting: the same measure for B25: 16.4 nM.

For the molecule B26, the half-inhibitory concentration (IC50) was 4.4 nM.

In the next assay the target is T1, human Protein S. Description: LANCE competition. The source holds these as a separate data set. An outline of the steps: as §1
B27 registered an IC50 of 2.2 nM. In turn, B28 gave a half-maximal inhibitory concentration (IC50) of 1.3 nM. On to B29, for which the IC50 is 1.5 nM. Consider B30, for which the IC50 worked out at 9 nM. Still for that read-out and setting: under B31 stands 1510 nM; under B32, 1.2 nM; under B33, 2 nM. For B34, the concentration for half-maximal inhibition (IC50) stood at 1.4 nM. In turn, B35 had an IC50 of 812 nM. B36 yielded an IC50 of 2.7 nM. The same measure, in the same setting: the same measure for B37: 1.9 nM; for B38: 206 nM. With B39, the IC50 came to 55.2 nM. Regarding B40, the IC50 stood at 2 nM. The same measure, in the same setting: the same measure for B41: 2 nM; for B42: 67.8 nM; for B43: 0.6 nM. Molecule B44 returned a concentration for half-maximal inhibition (IC50) of 981 nM.
